T1: monomeric CD19 extracellular domain (UniProt P15391 20-291, limits assumed)
T1 construct: extracellular domain; also called monomeric CD19 protein
T1 sequence (looked up): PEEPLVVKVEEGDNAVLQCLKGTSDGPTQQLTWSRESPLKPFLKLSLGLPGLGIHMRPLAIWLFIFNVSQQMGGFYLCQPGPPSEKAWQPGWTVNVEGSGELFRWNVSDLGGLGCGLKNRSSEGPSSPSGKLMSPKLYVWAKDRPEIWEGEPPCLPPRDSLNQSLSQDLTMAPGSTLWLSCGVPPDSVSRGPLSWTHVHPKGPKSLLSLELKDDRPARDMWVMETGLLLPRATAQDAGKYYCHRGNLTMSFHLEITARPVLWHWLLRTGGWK

T2: dimeric CD19 extracellular domain fused with human IgG1 Fc (human, UniProt P15391 20-291, limits assumed)
T2 construct: extracellular domain; also called dimeric CD19 protein; not shown: human IgG1 Fc
T2 sequence (looked up): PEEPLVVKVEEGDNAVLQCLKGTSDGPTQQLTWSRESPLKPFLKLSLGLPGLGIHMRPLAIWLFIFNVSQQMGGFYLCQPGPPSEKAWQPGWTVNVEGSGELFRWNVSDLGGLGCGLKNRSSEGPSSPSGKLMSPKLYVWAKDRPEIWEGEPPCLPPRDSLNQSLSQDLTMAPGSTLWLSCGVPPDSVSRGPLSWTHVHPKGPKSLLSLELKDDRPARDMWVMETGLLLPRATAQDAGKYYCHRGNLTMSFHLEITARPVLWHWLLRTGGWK


Key:
mouse serum albumin [1] = biological target: T3, mouse serum albumin (mouse, UniProt P07724 25-608); test: ratio of the Octet KD for mouse serum albumin to that for human serum albumin
T3 construct: also called MSA
T3 sequence (P07724 25-608 limits assumed): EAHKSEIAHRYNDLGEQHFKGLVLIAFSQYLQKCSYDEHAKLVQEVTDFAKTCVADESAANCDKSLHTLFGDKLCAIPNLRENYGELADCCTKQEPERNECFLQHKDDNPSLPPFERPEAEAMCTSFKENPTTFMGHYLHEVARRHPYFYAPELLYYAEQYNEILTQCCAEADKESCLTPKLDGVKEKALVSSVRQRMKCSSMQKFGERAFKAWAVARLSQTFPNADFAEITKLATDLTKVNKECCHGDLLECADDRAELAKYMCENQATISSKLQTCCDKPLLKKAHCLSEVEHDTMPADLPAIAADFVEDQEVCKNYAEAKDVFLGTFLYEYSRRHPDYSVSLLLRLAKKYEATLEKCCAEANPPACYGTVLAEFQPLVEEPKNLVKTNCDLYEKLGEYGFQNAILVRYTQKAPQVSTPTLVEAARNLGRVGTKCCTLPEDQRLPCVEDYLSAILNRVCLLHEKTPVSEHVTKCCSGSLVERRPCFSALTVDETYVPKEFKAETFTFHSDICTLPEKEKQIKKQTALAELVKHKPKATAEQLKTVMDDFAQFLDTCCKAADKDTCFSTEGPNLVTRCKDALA

protein A = protein A (UniProt P38507 37-327); test: Octet HTX (ForteBio), HCAb on AHC sensor; legend: no binding was detected under the conditions of this assay
human serum albumin = biological target: T4, human serum albumin (human, UniProt P02768 25-609); test: Octet HTX (ForteBio), HCAb on AHC sensor, 1:1 fit
T4 construct: also called HSA

cynomolgus serum albumin = cynomolgus serum albumin (cynomolgus, UniProt A2V9Z4 25-608); test: Octet HTX (ForteBio), HCAb on AHC sensor, 1:1 fit
cynomolgus serum albumin, sequence (A2V9Z4 25-608 limits assumed): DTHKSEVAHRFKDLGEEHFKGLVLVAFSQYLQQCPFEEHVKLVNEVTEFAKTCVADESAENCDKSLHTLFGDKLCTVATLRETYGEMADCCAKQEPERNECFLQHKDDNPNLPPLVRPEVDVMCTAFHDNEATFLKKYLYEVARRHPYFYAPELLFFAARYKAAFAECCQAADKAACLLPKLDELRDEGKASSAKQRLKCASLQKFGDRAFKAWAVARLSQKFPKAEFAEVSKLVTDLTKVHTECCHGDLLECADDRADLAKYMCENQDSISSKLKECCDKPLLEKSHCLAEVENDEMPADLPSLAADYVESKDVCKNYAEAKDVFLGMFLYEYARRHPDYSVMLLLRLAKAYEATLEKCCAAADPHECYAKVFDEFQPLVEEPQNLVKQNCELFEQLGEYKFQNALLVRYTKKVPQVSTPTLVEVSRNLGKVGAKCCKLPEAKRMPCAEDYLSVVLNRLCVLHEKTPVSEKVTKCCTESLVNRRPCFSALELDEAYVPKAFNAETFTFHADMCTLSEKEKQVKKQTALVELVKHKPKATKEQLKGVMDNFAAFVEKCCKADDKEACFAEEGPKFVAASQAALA

mouse serum albumin [2] = biological target: T3, mouse serum albumin; test: Octet HTX (ForteBio), HCAb on AHC sensor, 1:1 fit
[3] = biological target: T1, monomeric CD19 extracellular domain; test: ForteBio instrument (called SPR in the text), monomeric CD19 extracellular domain; monomeric CD19 protein
Description: (§1) As noted above, some of the constructs produced contained an anti-CD19 scFv having the amino acid sequence set forth in SEQ ID NO: 9 or 18. The binding affinity of the two CD19 binding domains to CD19 were measured by SPR using a monomeric CD19 extracellular domain and a dimeric CD19 extracellular domain fused with human IgG1 Fc. Binding kinetic parameters were measured using a ForteBio instrument generally as previously described (see, Estep et al. (2013) MAbs, 5(2): 270-78).

[4] = biological target: T2, dimeric CD19 extracellular domain fused …; test: ForteBio instrument (called SPR in the text), dimeric CD19 extracellular domain-human IgG1 Fc; dimeric CD19 extracellular domain fused with human IgG1 Fc
Description: as §1

human CD3 [5] = biological target: human CD3 (human); test: method not given
human CD3 (human), sequence (chain, as listed by the source): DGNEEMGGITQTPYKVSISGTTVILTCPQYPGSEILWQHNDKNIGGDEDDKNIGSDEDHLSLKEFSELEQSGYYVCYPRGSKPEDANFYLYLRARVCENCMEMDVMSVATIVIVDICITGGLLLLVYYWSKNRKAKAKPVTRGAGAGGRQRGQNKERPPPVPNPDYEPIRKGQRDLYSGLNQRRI

human CD3 [6] = biological target: human CD3 (human); test: SPR, BiaCore method of WO2018208864A1
human CD3 [7] = biological target: human CD3 (human); test: BLI, Octet method of WO2018208864A1

| Binder | Kd [3] | Kd [4] | Kd (human CD3 [6]) | Kd (human CD3 [7]) | also measured |
| --- | --- | --- | --- | --- | --- |
| CNG-HSA-106 (VHH) VHH: KVQLLESGGGLVQPGGSLRLSCAASGFTFSSFGMSWVRQAPGKGLEWVSSISGSGSDTLYADSVRGRFTISRDNSKNTLYLQMDSLRAEDTAVYYCTIGGSRSISSQGTLVTVSS | – | – | – | – | Ratio of MSA-KD to HSA-KD (mouse serum albumin [1]): 3.41; binding result (protein A): no binding; Kd (human serum albumin): 17 nM; koff (human serum albumin): 0.00297 s⁻¹; Kd (cynomolgus serum albumin): 14.4 nM; koff (cynomolgus serum albumin): 0.00238 s⁻¹; Kd (mouse serum albumin [2]): 57.8 nM; koff (mouse serum albumin [2]): 0.0124 s⁻¹ |
| CNG-CD3-1 scFv construct (scFv) scFv: DIVMTQSPDSLAVSLGERATINCKSSQSLLNARTGKNYLAWYQQKPGQPPKLLIYWASTRESGVPDRFSGSGSGTDFTLTISSLQAEDVAVYYCKQSYSRRTFGGGTKVEIKGGGGSGGGGSGGGGSGGGGSQVQLVQSGAEVKKPGASVKVSCKASGFNIKDYYMHWVRQAPGQRLEWMGWIDLENANTIYDAKFQGRVTITRDTSASTAYMELSSLRSEDTAVYYCARDAYGRYFYDVWGQGTLVTVSS | – | – | 1.9 nM | 4.4 nM | Kd (human CD3 [5]): 1.6 nM |
| CNG-CD3-2 scFv construct (scFv) scFv: DIVMTQSPDSLAVSLGERATINCKSSQSLLNARTGKNYLAWYQQKPGQPPKLLIYWASTRESGVPDRFSGSGSGTDFTLTISSLQAEDVAVYYCKQSYSRRTFGGGTKVEIKGGGGSGGGGSGGGGSGGGGSQVQLVQSGAEVKKPGASVKVSCKASGFNIKDYYMHWVRQAPGQRLEWMGWIDLENANTIYDAKFQGRVTITRDTSASTAYMELSSLRSEDTAVYYCARDQYGRYFYDVWGQGTLVTVSS | – | – | 16 nM | 27 nM | – |
| CNG-CD3-3 scFv construct (scFv) scFv: DIVMTQSPDSLAVSLGERATINCKSSQSLLNARTGKNYLAWYQQKPGQPPKLLIYWASTRESGVPDRFSGSGSGTDFTLTISSLQAEDVAVYYCKQSYSLRTFGGGTKVEIKGGGGSGGGGSGGGGSGGGGSQVQLVQSGAEVKKPGASVKVSCKASGFNIKDYYMHWVRQAPGQRLEWMGWIDLEEGNTIYDAKFQGRVTITRDTSASTAYMELSSLRSEDTAVYYCARDAYGRYFYDVWGQGTLVTVSS | – | – | 26 nM | 54 nM | – |

The next lines start with results.

| Kd [3] | Kd [4] | Kd (human CD3 [6]) | Kd (human CD3 [7]) | Binder | also measured |
| --- | --- | --- | --- | --- | --- |
| 11 nM | 15 nM | – | – | SEQ ID NO 18 (scFv, its limits are my reading; also called anti-CD19 scFv of tAb0033 to tAb0038) scFv: QVQLQESGPGLVKPSQTLSLTCTVSGGSISTSGMGVGWIRQHPGKGLEWIGHIWWDDDKRYNPALKSRVTISVDTSKNQFSLKLSSVTAADTAVYYCARMELWSYYFDYWGQGTLVTVSSGGGGSGGGGSGGGGSEIVLTQSPATLSLSPGERATLSCSASSSVSYMHWYQQKPGQAPRLLIYDTSKLASGIPARFSGSGSGTDFTLTISSLEPEDFAVYYCFQGSVYPFTFGQGTKLEIKR | – |
| 7 nM | 5 nM | – | – | SEQ ID NO 9 (scFv, its limits are my reading; also called anti-CD19 scFv of tAb0027 to tAb0032) scFv: QVQLVQSGAEVKKPGASVKVSCKASGYTFTDYIMHWVRQAPGQGLEWMGYINPYNDGSKYTEKFQGRVTMTSDTSISTAYMELSRLRSDDTAVYYCARGTYYYGPQLFDYWGQGTTVTVSSGGGGSGGGGSGGGGSDIVMTQTPLSLSVTPGQPASISCKSSQSLETSTGTTYLNWYLQKPGQSPQLLIYRVSKRFSGVPDRFSGSGSGTDFTLKISRVEAEDVGVYYCLQLLEDPYTFGQGTKLEIK | – |

— US20230037815A1 (CULLINAN THERAPEUTICS, published 2023)
